The source of these data is patent US5262318.

The subject of this data set is SphI restriction endonuclease (recombinant, NEB#808 / pEGsph50-2; gene within SEQ ID NO:2) (Streptomyces phaeochromogenes). Description: cleavage_in_vitro. Particulars: 150 units, 4 h, 37 C; nonspecific endonuclease control.

Consider phiX174 RFI DNA, for which the activity (% converted to RF II) was < 25.
